Assay [1] concerns the target T1, Mouse Fas on the cell surface (mouse, UniProt P25446 22-327).
T1 construct: whole, on cells; also called Fas on peripheral blood lymphocytes of BALB/c mice
T1 sequence (looked up): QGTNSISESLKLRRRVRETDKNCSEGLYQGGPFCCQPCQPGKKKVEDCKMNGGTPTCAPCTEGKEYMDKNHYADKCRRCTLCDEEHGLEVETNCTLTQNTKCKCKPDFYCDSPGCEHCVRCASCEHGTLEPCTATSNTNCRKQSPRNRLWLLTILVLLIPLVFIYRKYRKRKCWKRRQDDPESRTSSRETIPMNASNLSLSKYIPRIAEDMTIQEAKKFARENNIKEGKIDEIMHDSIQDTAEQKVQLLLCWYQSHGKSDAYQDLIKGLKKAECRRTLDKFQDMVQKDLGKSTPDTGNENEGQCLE
Put plainly: flow cytometry histograms (FL1-H) on mouse PBL, FITC anti-human kappa secondary. An excerpt: (§1) Reactivity of F45D9-γ1 or F45D9-γ4 mAb with Fas molecules of various species was initially screened using primary blood cells or lymphocytes cell lines. The binding of F45D9-γ1 or F45D9-γ4 mAb was explored by immunofluoresce staining and flow cytometry analysis, in human PBMC, purified human resting T cells, activated human T cells, peripheral blood lymphocytes (PBL) derived from BALE/c mice, rat, dog and pig, and in B cell lines or PBL derived from common marmoset, cynomolgus macaque, olive baboon, rhesus macaque and chimpanzee. Resting and activated human T cells were prepared as described in Example 7. B cells lines from monkeys were obtained from Biomedical Primate Research Center (Rijswijk, The Netherlands), and were cultured in RPMI 1640 medium supplemented with 2 mM glutamax, 100 UI/mL penicillin, 100 μg/mL streptomycin and 10% fetal bovine serum, at 37° C. and 5% CO₂. After washing in PBS cells (0.2−0.4×10⁶ cells/well) were incubated in staining buffer (PBS/1% FBS) containing F45D9-γ1 or human IgG control antibodies (10-20 ug/ml) in a 96-well U-bottom plate for 30 min on ice, in a 100 ul/well volume. Cells were then washed once with staining buffer, and further incubated for 30 min on ice with 1:30 dilution of FITC-conjugated rabbit F(ab′)₂ anti-human kappa (DakoCytomation Cat. F0434) or FITC-conjugated rabbit F(ab′)₂ anti-human IgG (DakoCytomation Cat. F0056). […]

The target in assay [2] is T2, Chimpanzee Fas on the cell surface (chimpanzee, UniProt K6ZIR5 26-335).
T2 construct: also called Fas on chimpanzee B cell line
T2 sequence: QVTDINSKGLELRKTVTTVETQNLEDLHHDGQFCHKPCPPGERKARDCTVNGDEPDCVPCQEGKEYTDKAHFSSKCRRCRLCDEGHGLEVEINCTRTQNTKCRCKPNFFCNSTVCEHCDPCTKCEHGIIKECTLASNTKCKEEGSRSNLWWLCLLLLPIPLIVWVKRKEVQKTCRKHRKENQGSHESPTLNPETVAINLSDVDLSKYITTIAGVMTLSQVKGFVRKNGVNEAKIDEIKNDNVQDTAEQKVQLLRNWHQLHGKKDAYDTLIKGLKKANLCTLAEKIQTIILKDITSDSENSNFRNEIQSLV
Put plainly: flow cytometry histograms (FL1-H) on chimpanzee cells (cell type not printed on the sheet), FITC anti-human IgG secondary.
Excerpt: as §1

For assay [3], the target named is T3, Rhesus macaque Fas on the cell surface (rhesus macaque, UniProt Q9BDP2 26-333).
T3 construct: whole, on cells
T3 sequence (looked up): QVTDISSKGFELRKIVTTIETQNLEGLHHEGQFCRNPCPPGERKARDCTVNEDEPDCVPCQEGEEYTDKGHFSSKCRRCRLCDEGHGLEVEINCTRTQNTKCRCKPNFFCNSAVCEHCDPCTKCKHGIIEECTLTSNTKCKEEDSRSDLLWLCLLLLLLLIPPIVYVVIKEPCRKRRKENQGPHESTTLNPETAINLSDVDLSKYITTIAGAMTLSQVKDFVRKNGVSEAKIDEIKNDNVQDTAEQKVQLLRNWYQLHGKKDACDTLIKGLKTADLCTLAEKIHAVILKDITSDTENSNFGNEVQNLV
Kind of assay: flow cytometry histograms (FL1-H) on rhesus macaque cells (cell type not printed on the sheet), FITC anti-human kappa or FITC anti-human IgG secondary.
Excerpt: as §1
In general terms: Flow cytometry measures light scatter and fluorescence of single cells or particles in a stream.

Assay [4] deals with T4, Cynomolgus macaque Fas on the cell surface (cynomolgus macaque, UniProt Q9TSN4 26-331).
T4 construct: whole, on cells; also called Fas on cynomolgus macaque B cell line and PBL
T4 sequence (looked up): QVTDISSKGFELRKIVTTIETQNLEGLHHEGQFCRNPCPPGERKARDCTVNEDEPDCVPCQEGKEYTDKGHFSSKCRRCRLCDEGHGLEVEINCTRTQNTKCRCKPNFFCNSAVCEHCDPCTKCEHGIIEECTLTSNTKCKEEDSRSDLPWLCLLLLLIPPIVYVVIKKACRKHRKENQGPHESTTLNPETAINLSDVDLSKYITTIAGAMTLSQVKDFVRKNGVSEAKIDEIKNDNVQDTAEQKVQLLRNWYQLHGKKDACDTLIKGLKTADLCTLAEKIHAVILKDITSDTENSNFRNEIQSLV
Kind of assay: flow cytometry histograms (FL1-H) on cynomolgus macaque cells (cell type not printed on the sheet), FITC anti-human kappa or FITC anti-human IgG secondary.
Excerpt: as §1

B1: F45D9-γ1 mAb (recombinant human mAb T17/B2-1G4, gamma-1 isotype) (antibody, V domains shown)
VH: QVQLQQWGAGLLKPSETLSLICAVYGGSFSTYYWTWIRQPPGKGLEWIGEINHRGTTNYSPSLKSRVTISVDTSKNHISLNLTSVTAADTALYYCARGLLWIGEGDYGLDVWGQGTTVTVSS
VL: DIQMTQSPSSLSASVGDRVTITCRASQGIRRWLAWYQQKPEKAPKSLIYAASSLQSGVPSRFSGSGSGTDFTLTISSLQPEDFATYYCQQYNSYPYTFGQGTKLEIKR
notes: Whole human IgG1 (γ1fa allotype) with human kappa light chain, made in CHO DG44 cells; also called IgG1; T17/L18/B2-1G4
For B1, the binding result in assay [1] is “no binding”; in assay [2], “binds”; in assay [3], “no binding”; in assay [4], “no binding”.

(Values after patent US20100233157A1 (published 2010).)
